Assay results taken from patent publication US20250154272A1.

Target: human CD137-His tag protein (R&D Systems, 9220-4B) (human) (UniProt Q07011)
Experiment: ELISA, human CD137-His tag protein immobilized on the plate, anti-human IgG Fc-HRP, A450-A570

- EC50 (read off the curve): 4 ng/mL
B1: ctrl IgG_L-3-34-j6 (antibody, part only; not given: isotype control IgG chains and linker, not shown: another chain or arm of the molecule; small tags and cut ends)
scFv: EVQLLESGGGLVQPGESLRLSCKAFGYTFTNHHINWVRQAPGKCLEWVGYINPYNDYTTFNDKFKDRFTLSVDKSKSTAYLQMNSLRAEDTAVYYCARTWGHWYFDLWGQGTLVTVSSGGGGSGGGGSGGGGSNIQMTQSPSSLSASVGDRVTITCRASQSVSSNLAWYQQKPGKAPKLLIYDSSTRATGVPSRFSGSGSGTDFTLTISSLQPEDFATYYCQQYNNWPPWTFGCGTKLEIKR
